# Assay results taken from the Human Domainome abundance scans (Beltran et al. 2025).
# ± gives the uncertainty stated by the source.
# B1: Spectrin alpha chain, erythrocytic 1, residues 979 to 1036; numbered along this chain, P02549 (parent)
# chain: EQRVMALYDFQARSPREVTMKKGDVLTLLSSINKDWWKVEAADHQGIVPAVYVRRLAH
# Variants of: B1
# Assay: abundance fitness (aPCA) (normalised: wild type 0, dead -1); higher = more abundant; growth selection in yeast, the domain comes from the species named
# Details: Homo sapiens
row,Variant,abundance fitness
1,EQRVMALYDFQARSPREVTMPKGDVLTLLSSINKDWWKVEAADHQGIVPAVYVRRLAH [K21P],-0.578 ± 0.44
2,EQRVMALYDFQARSPREVTMGKGDVLTLLSSINKDWWKVEAADHQGIVPAVYVRRLAH [K21G],-0.652 ± 0.17
3,EQRVMALYDFQARSPREVTMIKGDVLTLLSSINKDWWKVEAADHQGIVPAVYVRRLAH [K21I],-0.779 ± 0.22
4,EQRVMALYDFQARSPREVTMWKGDVLTLLSSINKDWWKVEAADHQGIVPAVYVRRLAH [K21W],-0.534 ± 0.41
5,EQRVMALYDFQARSPREVTMHKGDVLTLLSSINKDWWKVEAADHQGIVPAVYVRRLAH [K21H],-0.304 ± 0.35
6,EQRVMALYDFQARSPREVTMFKGDVLTLLSSINKDWWKVEAADHQGIVPAVYVRRLAH [K21F],-0.643 ± 0.36
7,EQRVMALYDFQARSPREVTMVKGDVLTLLSSINKDWWKVEAADHQGIVPAVYVRRLAH [K21V],-0.781 ± 0.12
8,EQRVMALYDFQARSPREVTMLKGDVLTLLSSINKDWWKVEAADHQGIVPAVYVRRLAH [K21L],-0.731 ± 0.14
9,EQRVMALYDFQARSPREVTMRKGDVLTLLSSINKDWWKVEAADHQGIVPAVYVRRLAH [K21R],-0.105 ± 0.13
10,EQRVMALYDFQARSPREVTMAKGDVLTLLSSINKDWWKVEAADHQGIVPAVYVRRLAH [K21A],-0.561 ± 0.14
11,EQRVMALYDFQARSPREVTMKKGDHLTLLSSINKDWWKVEAADHQGIVPAVYVRRLAH [V25H],-0.432 ± 0.14
12,EQRVMALYDFQARSPREVTMKKGDILTLLSSINKDWWKVEAADHQGIVPAVYVRRLAH [V25I],-0.099 ± 0.21
13,EQRVMALYDFQARSPREVTMKKGDALTLLSSINKDWWKVEAADHQGIVPAVYVRRLAH [V25A],-0.163 ± 0.26
14,EQRVMALYDFQARSPREVTMKKGDELTLLSSINKDWWKVEAADHQGIVPAVYVRRLAH [V25E],0.059 ± 0.29
15,EQRVMALYDFQARSPREVTMKKGDRLTLLSSINKDWWKVEAADHQGIVPAVYVRRLAH [V25R],-0.469 ± 0.14
16,EQRVMALYDFQARSPREVTMKKGDKLTLLSSINKDWWKVEAADHQGIVPAVYVRRLAH [V25K],-0.226 ± 0.46
17,EQRVMALYDFQARSPREVTMKKGDTLTLLSSINKDWWKVEAADHQGIVPAVYVRRLAH [V25T],-0.7 ± 0.5
18,EQRVMALYDFQARSPREVTMKKGDLLTLLSSINKDWWKVEAADHQGIVPAVYVRRLAH [V25L],-1.01 ± 0.49
19,EQRVMALYDFQARSPREVTMKKGDCLTLLSSINKDWWKVEAADHQGIVPAVYVRRLAH [V25C],-0.146 ± 0.39
20,EQRVMALYDFQARSPREVTMKKGDSLTLLSSINKDWWKVEAADHQGIVPAVYVRRLAH [V25S],-0.887 ± 0.34
21,EQRVMALYDFQARSPREVTMKKGDMLTLLSSINKDWWKVEAADHQGIVPAVYVRRLAH [V25M],-0.425 ± 0.13
22,EQRVMALYDFQARSPREVTKKKGDVLTLLSSINKDWWKVEAADHQGIVPAVYVRRLAH [M20K],-0.574 ± 0.41
23,EQRVMALYDFQARSPREVTFKKGDVLTLLSSINKDWWKVEAADHQGIVPAVYVRRLAH [M20F],-0.681 ± 0.24

row,Variant,abundance fitness
1,EQRVMALYDFQARSPREVTRKKGDVLTLLSSINKDWWKVEAADHQGIVPAVYVRRLAH [M20R],-0.963 ± 0.19
2,EQRVMALYDFQARSPREVTWKKGDVLTLLSSINKDWWKVEAADHQGIVPAVYVRRLAH [M20W],-0.622 ± 0.14
3,EQRVMALYDFQARSPREVTQKKGDVLTLLSSINKDWWKVEAADHQGIVPAVYVRRLAH [M20Q],-0.236 ± 0.17
4,EQRVMALYDFQARSPREVTLKKGDVLTLLSSINKDWWKVEAADHQGIVPAVYVRRLAH [M20L],-0.276 ± 0.092
5,EQRVMALYDFQARSPREVTIKKGDVLTLLSSINKDWWKVEAADHQGIVPAVYVRRLAH [M20I],-0.554 ± 0.38
6,EQRVMALYDFQARSPREVTTKKGDVLTLLSSINKDWWKVEAADHQGIVPAVYVRRLAH [M20T],-0.877 ± 0.18
7,EQRVMALYDFQARSPREVTVKKGDVLTLLSSINKDWWKVEAADHQGIVPAVYVRRLAH [M20V],-0.22 ± 0.12
8,EQRVMALYDFQARSPREVTPKKGDVLTLLSSINKDWWKVEAADHQGIVPAVYVRRLAH [M20P],-0.831 ± 0.38
9,EQRVMALYDFQARSPREVTNKKGDVLTLLSSINKDWWKVEAADHQGIVPAVYVRRLAH [M20N],-0.209 ± 0.44
10,EQRVMALYDFQARSPREVTEKKGDVLTLLSSINKDWWKVEAADHQGIVPAVYVRRLAH [M20E],-0.726 ± 0.26
11,EQRVMALYDFQARSPREVTYKKGDVLTLLSSINKDWWKVEAADHQGIVPAVYVRRLAH [M20Y],-0.867 ± 0.32
12,EQRVMALYDFQARSPREVTGKKGDVLTLLSSINKDWWKVEAADHQGIVPAVYVRRLAH [M20G],-0.829 ± 0.2
13,EQRVMALYDFQARSPREVTAKKGDVLTLLSSINKDWWKVEAADHQGIVPAVYVRRLAH [M20A],-0.791 ± 0.24
14,EQRVMALYDFQARSPREVTCKKGDVLTLLSSINKDWWKVEAADHQGIVPAVYVRRLAH [M20C],-0.726 ± 0.21
15,EQRVMALYDFQARSPREVTMKKGDVLTGLSSINKDWWKVEAADHQGIVPAVYVRRLAH [L28G],-0.756 ± 0.14
16,EQRVMALYDFQARSPREVTMKKGDVLTKLSSINKDWWKVEAADHQGIVPAVYVRRLAH [L28K],-0.676 ± 0.44
17,EQRVMALYDFQARSPREVTMKKGDVLTRLSSINKDWWKVEAADHQGIVPAVYVRRLAH [L28R],-0.938 ± 0.18
18,EQRVMALYDFQARSPREVTMKKGDVLTILSSINKDWWKVEAADHQGIVPAVYVRRLAH [L28I],0.024 ± 0.44
19,EQRVMALYDFQARSPREVTMKKGDVLTCLSSINKDWWKVEAADHQGIVPAVYVRRLAH [L28C],0.354 ± 0.28
20,EQRVMALYDFQARSPREVTMKKGDVLTALSSINKDWWKVEAADHQGIVPAVYVRRLAH [L28A],-0.762 ± 0.26
21,EQRVMALYDFQARSPREVTMKAGDVLTLLSSINKDWWKVEAADHQGIVPAVYVRRLAH [K22A],-0.664 ± 0.17
22,EQRVMALYDFQARSPREVTMKEGDVLTLLSSINKDWWKVEAADHQGIVPAVYVRRLAH [K22E],-0.819 ± 0.36
